Substrate: O=C1O[C@H]([C@@H](O)CO)C(O)=C1O
Experiment: two-electrode voltage clamp in Xenopus oocytes, trans-plasma membrane current
Assay type: cell-based, Arabidopsis thaliana
Conditions: cytosolic electron donor, raised by injection; ferricyanide as extracellular electron acceptor

B1: HYP1 (… TO LOW P1) (Arabidopsis thaliana) (protein)
chain: QSLCNTHRFTNNLAFADCSDLSALGSFLHWTYNEQNGTVSIAYRHPGTSASSWVAWGLNPSSTQMVGTQALVAFTNTTTNQFQAYTSSVSSYGTRLERSSLSFGVSGLSATLVSGEVTIFATLELSPNLITANQLWQVGPVVNGVPASHQTSGDNMRSSGRIDFRTGQASAGGGGSGDRLRKRNTHGVLNAVSWGVLMPMGAMMARYMKVFADPTWFYLHIAFQVSGYVIGVAGWATGIKLGNDSPGTSYSTHRNLGIALFTFATLQVFALLVRPKPDHKYRTYWNVYHHTVGYTTIILSIVNIFKGFDILDPEDKWRWAYIGILIFLGACVLILEPLTWFIVLRRKSRGGNTVAAPTSSKYSNGVNGTTTTGPHHQDA
notes: cDNA in pGEMHE, cRNA-injected Xenopus laevis oocytes
**Q.** With B1 as the protein, how does the Km read?
**A.** The Km was 4 mM.

Source: PMC10784544, “Ferric reduction by a CYBDOM protein counteracts increased iron availability in root meristems induced by phosphorus deficiency” (Nature Communications, 2024)
